# Assay results taken from US20140213531A1 (POLYPHOR, published 2014).
# Bridges are numbered along the chain shown (N, C = ends). Primed or numbered codes have the meaning given here. [ ]: non-standard residue; d: D form. Pro(4NHCOPhe)″ = 4-benzamido-L-proline, (2S)-4-benzoylamino-pyrrolidine-2-carboxylic acid; Gly(octyl) = CCCCCCCC[C@H](N)C(=O)O; Pro(4NHCOPhe) = not defined here; Cha = N[C@@H](CC1CCCCC1)C(=O)O; Nle = CCCC[C@H](N)C(=O)O
# T1: Chymase, from human skin (human, UniProt P23946 22-247)
# T1 construct: purified natural enzyme, bought
# T1 sequence (looked up): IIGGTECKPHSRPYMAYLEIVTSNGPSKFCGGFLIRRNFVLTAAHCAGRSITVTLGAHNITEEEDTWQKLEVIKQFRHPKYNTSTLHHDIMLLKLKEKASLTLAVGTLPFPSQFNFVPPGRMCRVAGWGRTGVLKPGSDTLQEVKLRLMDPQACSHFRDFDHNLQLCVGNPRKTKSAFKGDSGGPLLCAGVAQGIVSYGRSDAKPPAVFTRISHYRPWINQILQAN
# T2: CathepsinG, from human neutrophils (human, UniProt P08311 21-244)
# T2 construct: purified natural enzyme, bought
# T2 sequence (looked up): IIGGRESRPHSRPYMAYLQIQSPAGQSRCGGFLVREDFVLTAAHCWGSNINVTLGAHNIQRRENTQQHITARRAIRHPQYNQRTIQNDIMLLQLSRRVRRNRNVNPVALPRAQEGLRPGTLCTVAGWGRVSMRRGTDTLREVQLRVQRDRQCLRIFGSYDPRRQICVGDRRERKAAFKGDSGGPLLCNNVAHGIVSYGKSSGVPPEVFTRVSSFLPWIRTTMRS
# Key:
# Assay in all cases: enzyme inhibition, pNA substrate
# [1] = target: T3, Chymotrypsin, from human pancreas (human, UniProt P17538 19-263)
# T3 construct: purified natural enzyme, bought
# [2] = target: T4, Coagulation Factor Xa, from uman plasma (human, UniProt P00742 41-179; P00742 235-488, limits assumed)
# T4 construct: purified natural enzyme, bought; also called FXa
# [3] = target: Thrombin, from Human Plasma, high activity (human, UniProt P00734 328-622)
# [4] = target: T5, Trypsin, Iodination grade, from human pancreas (human, UniProt P07477 24-247)
# T5 construct: purified natural enzyme, bought
# Chymase, from human skin = target: T1, Chymase, from human skin
# [5] = target: T6, Urokinase from human urine (human, UniProt P00749 21-431, limits assumed)
# T6 construct: purified natural enzyme, bought
# [6] = target: T2, CathepsinG, from human neutrophils
# [7] = target: T7, Tryptase, from human lung (human, UniProt Q15661 31-275, limits assumed)
# T7 construct: purified natural enzyme, bought
# T7 sequence (Q15661 31-275 limits assumed): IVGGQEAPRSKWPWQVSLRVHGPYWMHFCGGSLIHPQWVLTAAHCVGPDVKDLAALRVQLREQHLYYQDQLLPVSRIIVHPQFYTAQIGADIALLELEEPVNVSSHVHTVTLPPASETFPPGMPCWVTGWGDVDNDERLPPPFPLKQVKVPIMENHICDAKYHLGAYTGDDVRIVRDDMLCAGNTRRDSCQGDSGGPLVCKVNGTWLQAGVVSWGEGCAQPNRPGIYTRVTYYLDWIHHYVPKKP
# T4 sequence (P00742 41-179 limits assumed, chain 1 of 2): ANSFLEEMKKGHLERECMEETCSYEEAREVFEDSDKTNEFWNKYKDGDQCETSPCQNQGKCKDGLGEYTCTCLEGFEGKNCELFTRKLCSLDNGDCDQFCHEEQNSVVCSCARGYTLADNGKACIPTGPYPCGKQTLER
# T4 sequence (P00742 235-488 limits assumed, chain 2 of 2): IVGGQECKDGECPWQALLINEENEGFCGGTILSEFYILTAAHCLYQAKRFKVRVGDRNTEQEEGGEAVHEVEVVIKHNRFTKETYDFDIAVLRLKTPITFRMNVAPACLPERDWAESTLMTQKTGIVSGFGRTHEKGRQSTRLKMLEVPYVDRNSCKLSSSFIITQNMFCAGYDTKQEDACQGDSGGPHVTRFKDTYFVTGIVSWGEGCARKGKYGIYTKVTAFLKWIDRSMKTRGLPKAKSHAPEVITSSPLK
# T3 sequence (P17538 19-263): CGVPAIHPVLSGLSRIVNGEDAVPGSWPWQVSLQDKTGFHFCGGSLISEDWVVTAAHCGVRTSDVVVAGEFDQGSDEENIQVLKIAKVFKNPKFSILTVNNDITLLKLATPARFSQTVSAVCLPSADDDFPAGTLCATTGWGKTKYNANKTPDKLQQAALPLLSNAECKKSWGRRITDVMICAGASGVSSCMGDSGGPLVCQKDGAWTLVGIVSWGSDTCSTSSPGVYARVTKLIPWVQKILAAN
Binder,% inhibition at 100 µM [1],% inhibition at 100 µM [2],% inhibition at 100 µM [3],% inhibition at 100 µM [4],"% inhibition at 100 µM (Chymase, from human skin)",% inhibition at 100 µM [5],% inhibition at 100 µM [6],% inhibition at 100 µM [7]
"XCTASXPPQCY (HELM PEPTIDE1{[Nle].C.T.A.S.[O=C([C@@H](N[*:1])C1CCCCC1)[*:2]].P.P.Q.C.Y.[dP].P}$PEPTIDE1,PEPTIDE1,2:R3-10:R3|PEPTIDE1,PEPTIDE1,1:R1-13:R2$$$V2.0; SMILES CCCC[C@@H]1NC(=O)[C@@H]2CCCN2C(=O)[C@H]2CCCN2C(=O)[C@H](Cc2ccc(O)cc2)NC(=O)[C@@H]2CSSC[C@H](NC1=O)C(=O)N[C@@H]([C@@H](C)O)C(=O)N[C@@H](C)C(=O)N[C@@H](CO)C(=O)N[C@@H](C1CCCCC1)C(=O)N1CCC[C@H]1C(=O)N1CCC[C@H]1C(=O)N[C@@H](CCC(N)=O)C(=O)N2, also called Ex. 140) [Example 140]",79.6%,13.3%,20.6%,10.8%,0%,10.4%,,
"XQTASIPPQTY (HELM PEPTIDE1{[CCCCCCCC[C@H](N[*:1])C(=O)[*:2]].Q.T.A.S.I.P.P.Q.T.Y.[dP].P}$PEPTIDE1,PEPTIDE1,1:R1-13:R2$$$V2.0; SMILES CCCCCCCC[C@@H]1NC(=O)[C@@H]2CCCN2C(=O)[C@H]2CCCN2C(=O)[C@H](Cc2ccc(O)cc2)NC(=O)[C@H]([C@@H](C)O)NC(=O)[C@H](CCC(N)=O)NC(=O)[C@@H]2CCCN2C(=O)[C@@H]2CCCN2C(=O)[C@H]([C@@H](C)CC)NC(=O)[C@H](CO)NC(=O)[C@H](C)NC(=O)[C@H]([C@@H](C)O)NC(=O)[C@H](CCC(N)=O)NC1=O) [Example 154]",,0%,,0%,0%,,27%,15%
cyclo([Gly(octyl)]ETASIPPQKY[dP]P) (also called Ex. 156) [Example 156],,0%,17%,0%,0%,,46%,15%
"XCTASXPPQCY (HELM PEPTIDE1{[Nle].C.T.A.S.[CCCCCCCC[C@H](N[*:1])C(=O)[*:2]].P.P.Q.C.Y.[dP].Q}$PEPTIDE1,PEPTIDE1,2:R3-10:R3|PEPTIDE1,PEPTIDE1,1:R1-13:R2$$$V2.0; SMILES CCCCCCCC[C@@H]1NC(=O)[C@H](CO)NC(=O)[C@H](C)NC(=O)[C@H]([C@@H](C)O)NC(=O)[C@@H]2CSSC[C@H](NC(=O)[C@H](CCC(N)=O)NC(=O)[C@@H]3CCCN3C(=O)[C@@H]3CCCN3C1=O)C(=O)N[C@@H](Cc1ccc(O)cc1)C(=O)N1CCC[C@@H]1C(=O)N[C@@H](CCC(N)=O)C(=O)N[C@@H](CCCC)C(=O)N2, also called Ex. 169) [Example 169]",79.6%,13.3%,20.6%,10.8%,0%,10.4%,,
"cyclo([Nle]CTAS[Cha]P[Pro(4NHCOPhe)]QCQ[dQ]Q) (disulfide 2-10; reading uncertain, also called Ex. 176) [Example 176]",55%,,15%,,,,69%,17%
"XCTASIPPQCX (HELM PEPTIDE1{[Nle].C.T.A.S.I.P.P.Q.C.[Phg].[dP].P}$PEPTIDE1,PEPTIDE1,2:R3-10:R3|PEPTIDE1,PEPTIDE1,1:R1-13:R2$$$V2.0; SMILES CCCC[C@@H]1NC(=O)[C@@H]2CCCN2C(=O)[C@H]2CCCN2C(=O)[C@H](c2ccccc2)NC(=O)[C@@H]2CSSC[C@H](NC1=O)C(=O)N[C@@H]([C@@H](C)O)C(=O)N[C@@H](C)C(=O)N[C@@H](CO)C(=O)N[C@@H]([C@@H](C)CC)C(=O)N1CCC[C@H]1C(=O)N1CCC[C@H]1C(=O)N[C@@H](CCC(N)=O)C(=O)N2, also called Ex. 136) [Example 136]",67.9%,0%,,0%,0%,0%,,0%
"XCTASIPPQCY (HELM PEPTIDE1{[Nle].C.T.A.S.I.P.P.Q.C.Y.[dP].F}$PEPTIDE1,PEPTIDE1,2:R3-10:R3|PEPTIDE1,PEPTIDE1,1:R1-13:R2$$$V2.0; SMILES CCCC[C@@H]1NC(=O)[C@H](Cc2ccccc2)NC(=O)[C@H]2CCCN2C(=O)[C@H](Cc2ccc(O)cc2)NC(=O)[C@@H]2CSSC[C@H](NC1=O)C(=O)N[C@@H]([C@@H](C)O)C(=O)N[C@@H](C)C(=O)N[C@@H](CO)C(=O)N[C@@H]([C@@H](C)CC)C(=O)N1CCC[C@H]1C(=O)N1CCC[C@H]1C(=O)N[C@@H](CCC(N)=O)C(=O)N2, also called Ex. 167) [Example 167]",60.2%,19.6%,0%,19%,,11.1%,,
"cyclo([Nle]CAASIPPQCY[dP]P) (disulfide 2-10, also called Ex. 86) [Example 86]",,24.8%,10.7%,0%,0%,,47%,0%
"XCTASIPPQCQ (HELM PEPTIDE1{[Nle].C.T.A.S.I.P.P.Q.C.Q.[dP].P}$PEPTIDE1,PEPTIDE1,2:R3-10:R3|PEPTIDE1,PEPTIDE1,1:R1-13:R2$$$V2.0; SMILES CCCC[C@@H]1NC(=O)[C@@H]2CCCN2C(=O)[C@H]2CCCN2C(=O)[C@H](CCC(N)=O)NC(=O)[C@@H]2CSSC[C@H](NC1=O)C(=O)N[C@@H]([C@@H](C)O)C(=O)N[C@@H](C)C(=O)N[C@@H](CO)C(=O)N[C@@H]([C@@H](C)CC)C(=O)N1CCC[C@H]1C(=O)N1CCC[C@H]1C(=O)N[C@@H](CCC(N)=O)C(=O)N2, also called Ex. 91) [Example 91]",,19.4%,13.5%,0%,,,45%,
"XCTASIPPQCY (HELM PEPTIDE1{[O=C([C@H](CCc1ccccc1)N[*:1])[*:2]].C.T.A.S.I.P.P.Q.C.Y.[dK].E}$PEPTIDE1,PEPTIDE1,2:R3-10:R3|PEPTIDE1,PEPTIDE1,1:R1-13:R2$$$V2.0; SMILES CC[C@H](C)[C@@H]1NC(=O)[C@H](CO)NC(=O)[C@H](C)NC(=O)[C@H]([C@@H](C)O)NC(=O)[C@@H]2CSSC[C@H](NC(=O)[C@H](CCC(N)=O)NC(=O)[C@@H]3CCCN3C(=O)[C@@H]3CCCN3C1=O)C(=O)N[C@@H](Cc1ccc(O)cc1)C(=O)N[C@H](CCCCN)C(=O)N[C@@H](CCC(=O)O)C(=O)N[C@@H](CCc1ccccc1)C(=O)N2) [Example 174]",85%,,11%,,0%,,56%,10%
cyclo([Nle]CTASIP[Pro(4NHCOPhe)″]QCY[dP]P) (disulfide 2-10) [Example 138],77.1%,12.6%,17.1%,12.2%,,14.4%,,0%
